B1: ZNF277 (parent)
chain: ILREELQKQRLREILEQQQQERND
B2: C22orf15 (parent)
chain: RGRHEQSPTSRPRKVSSLPPRSC

Variants of: B1
Assay: protein stability index of a GFP-peptide fusion (GPS, HEK-293T) (PSI 1-6); higher = more stable
Conditions: c terminus: a fixed tail appended
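Also: lentivirally expressed fusions sorted by FACS into six bins by GFP to DsRed ratio, PSI derived from sequencing read proportions per bin multiplied by bin number.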

Protein stability index: each site, then its substitutions
E21: Y 3.73; N 3.9; R 2.69; C 3.04; D 4.22; W 2.95; A 4.39; L 3.52; F 3.4; I 2.94; Q 3.38; V 3.2; K 4.26; H 4.61; G 4.04; M 3.73; S 4.41; T 4.09; P 3.04
N23: I 4.02; W 3.22; S 4.05; A 4.53; V 3.89; Y 3.56; Q 4.13; E 4.59; P 4.47; T 4.37; G 3.98; C 3.98; K 4.1; D 4.96; R 3.75; L 3.92; M 4.14; H 4.04; F 3.73
Q20: C 4.2; S 4.37; A 4.93; Y 4.16; V 3.74; H 3.94; R 4.41; F 3.44; E 5.03; W 3.18; L 4.05; G 4.22; M 3.96; P 4.17; T 3.29; K 4.51; I 4.36; N 4.3
Q19: G 4.57; D 4.4; K 3.7; T 3.64; F 2.91; H 4.67; V 4.44; L 3.87; M 3.35; W 2.85; E 3.98; C 4.45; A 4.13; N 3.5; S 4.41; P 4.29; Y 3.98
D24: G 3.77; N 4.08; S 3.68; A 3.47; P 3.85; K 3.83; R 3.48; T 4.01; H 3.16; W 2.73; L 4.08; Y 3.7; Q 4.18; F 3.26; V 4.05; I 3.64; M 4.14; C 3.91; E 4.12
R22: L 4.46; H 4.4; N 4.75; A 4.4; F 3.81; P 4.57; G 4.67; S 4.73; E 4.61; C 4.48; D 4.92; V 3.53; W 3.72; K 4.63; M 4.45; Q 4.44; T 4.76; Y 4.54; I 3.81
Q18: V 3.83; N 4.37; T 3.57; P 4.68; W 4.15; M 3.59; R 4.97; Y 2.9; S 3.99

Variants of: B2
Assay: as above
Conditions: c terminus: native

Protein stability index of substitutions, site by site:
C23: L 2.42; I 1.8; H 2.29; F 3.5
S22: P 3.03; T 3.62; H 4.07; Q 2.27; L 2.35; D 1.39; E 2.6
E5: P 2.93; F 2.19; L 2.09; R 2.19; N 2.19; Y 4.38; K 2.68
S16: F 3.32; W 1.81; Y 3.44; K 2.94; I 1.98; P 2.77; V 3.6; Q 2.92; D 2.87; T 2.07; H 2.57; N 2.53; A 1.95; M 2.63
Q6: Y 2.05; V 3.92; L 2.54; W 4.38; I 4.15; T 1.97; S 1.79
T9: R 3.3; K 2.44; Y 2.35; A 3.73; S 2.58; C 1.52; G 2.07; H 1.83
R13: F 2.43; S 2.15; C 3.56; D 4.32; T 2.73; E 2.88; Q 1.47; L 3.56; H 3.08; M 3.68; Y 1.49; W 1.54
S10: A 1.64; D 1.09; F 1.99; T 2.83; H 1.87; R 1.8; C 2.51; P 1.61; K 1.93; V 2.85
P8: K 3.28; C 3.78; R 4.11; G 2.55; N 2.71; Q 2.65; H 3.48
S17: N 2.99; P 3.73; Y 2.45; Q 2.34; G 1.99; M 1.89; R 3.79; E 3.27; K 1.93; I 2.3
R3: V 2.05; H 2.76; C 3.01; K 2.27; L 4.27; I 3.03
K14: Q 4.04; N 1.24; I 2.67; W 1.93; V 3.29; F 3.52; Y 2.54; T 4.73; E 3.42; G 3.13; D 3.71
R21: V 2.88; K 5.13; D 5.37; N 4.68; P 4.74; C 3.38; Y 4.92; E 5.2; T 4.25; M 3.66; H 4.53; Q 4.51; F 4.25; S 4.8; W 4.43; L 3.37; I 2.83; G 1.74; A 4.53
P12: Q 3.88; M 1.89; H 2.55; D 2.8; T 2.55; Y 3.13; W 2.55; G 1.4
G2: Y 3.84; H 1.16; R 2.96; M 1.9; C 1.57; E 1.27; S 3.1; I 2.64; D 2.01; F 2.04; Q 2.2
R1: M 3.56; A 3.06; W 3.77; D 2.81; V 1.73; Y 3.26
H4: V 2.38; A 1.91; T 3.06; C 2.55; R 3.58; N 3.03; F 2.91; I 3.17
V15: S 2.1; N 2.71; L 3.74; C 2.52; Q 2.22; H 4.12; D 1.97; F 3.96; R 2.8; K 3.42; T 1.82; P 4.67; G 2.29
S7: V 3.68; R 2.69; Y 2.32; F 2.94; N 2.44; D 2.76
L18: A 1.68; C 2.88; D 1.5; W 3.64; Y 2.29; T 4.07; H 3.38; I 2.76; V 3.25; M 3.65
P20: A 3; E 2.84; I 2.72; V 2.26; Y 2.1; C 1.58; F 4.13; D 3.82; S 1.99
R11: W 5; P 3.98; K 3.4; N 2.35; G 2.87; Q 3.32; S 2.31; A 2.33; T 2.51
P19: S 3.79; D 3.23; V 2.86; I 1.81; R 2.13; M 1.93; Q 1.44; Y 3.14; L 3.07; F 2.19; A 4.11; T 4.33

— the supplement of paper PMC10567573
